Molecular target: DNMT1 (UniProt P26358 1-1616)
Assay: SPR

Chain of DNMT1 (P26358 whole entry): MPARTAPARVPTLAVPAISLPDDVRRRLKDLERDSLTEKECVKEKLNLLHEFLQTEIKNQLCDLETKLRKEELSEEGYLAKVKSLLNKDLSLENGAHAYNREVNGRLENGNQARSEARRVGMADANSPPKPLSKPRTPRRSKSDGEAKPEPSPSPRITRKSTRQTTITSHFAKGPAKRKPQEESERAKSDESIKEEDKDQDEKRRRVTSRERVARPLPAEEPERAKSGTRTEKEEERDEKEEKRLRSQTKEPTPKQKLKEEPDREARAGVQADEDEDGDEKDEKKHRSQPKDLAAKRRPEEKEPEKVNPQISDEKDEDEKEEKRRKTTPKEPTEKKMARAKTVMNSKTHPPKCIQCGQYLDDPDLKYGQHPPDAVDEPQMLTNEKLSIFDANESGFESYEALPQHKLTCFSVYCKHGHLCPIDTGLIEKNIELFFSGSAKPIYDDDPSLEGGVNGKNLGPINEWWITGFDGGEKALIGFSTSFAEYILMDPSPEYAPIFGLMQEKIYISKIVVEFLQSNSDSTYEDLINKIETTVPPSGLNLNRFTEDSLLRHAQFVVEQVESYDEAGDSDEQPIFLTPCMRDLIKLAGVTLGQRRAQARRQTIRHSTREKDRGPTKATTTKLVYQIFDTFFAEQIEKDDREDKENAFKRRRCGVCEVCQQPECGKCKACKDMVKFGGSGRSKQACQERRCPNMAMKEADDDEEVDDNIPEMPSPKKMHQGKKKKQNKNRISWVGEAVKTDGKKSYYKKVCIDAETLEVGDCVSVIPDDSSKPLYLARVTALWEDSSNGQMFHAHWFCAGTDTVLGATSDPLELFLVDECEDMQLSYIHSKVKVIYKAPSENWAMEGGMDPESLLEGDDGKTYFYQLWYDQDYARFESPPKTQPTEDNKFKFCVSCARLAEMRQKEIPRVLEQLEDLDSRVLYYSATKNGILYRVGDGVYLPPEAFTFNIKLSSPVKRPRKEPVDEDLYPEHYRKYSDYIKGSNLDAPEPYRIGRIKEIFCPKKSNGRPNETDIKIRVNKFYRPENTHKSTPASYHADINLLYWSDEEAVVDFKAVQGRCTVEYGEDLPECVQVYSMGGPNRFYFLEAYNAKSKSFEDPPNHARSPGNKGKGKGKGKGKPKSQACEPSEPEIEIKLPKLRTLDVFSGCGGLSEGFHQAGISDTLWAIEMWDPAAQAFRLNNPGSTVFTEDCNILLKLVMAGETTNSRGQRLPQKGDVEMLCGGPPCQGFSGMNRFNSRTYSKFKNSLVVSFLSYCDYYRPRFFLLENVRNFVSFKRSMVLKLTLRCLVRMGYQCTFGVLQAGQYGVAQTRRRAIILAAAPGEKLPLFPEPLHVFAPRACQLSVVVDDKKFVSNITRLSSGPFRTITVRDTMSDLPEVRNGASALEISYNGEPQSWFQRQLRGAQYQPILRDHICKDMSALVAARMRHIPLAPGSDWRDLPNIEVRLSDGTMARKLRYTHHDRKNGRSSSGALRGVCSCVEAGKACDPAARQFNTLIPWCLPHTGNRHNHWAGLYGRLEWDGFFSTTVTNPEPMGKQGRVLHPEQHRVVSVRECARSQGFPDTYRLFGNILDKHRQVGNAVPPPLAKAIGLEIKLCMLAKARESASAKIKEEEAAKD

B1: hemimethylated 30-bp oligo (D1subHMF/D1subUMF) (dsDNA)
DNA 1: GAAGCTGGGACTTCCGGCAGGAGAGTGCAA
DNA 2: TTGCACTCTCCTGCCGGAAGTCCCAGCTTC
modifications: 5-methylcytosine at position 15 of strand 1
B1 was tested. Which Kd did it give?
The Kd was 1070 nM.

From publication PMC3315326
